Reference: paper PMC12394548 (Nature Communications, 2025)

B1: valosin contain protein p97/p47 interacting protein 1 (VCPIP1), wild type (enzyme, UniProt Q96JH7 1-1222, looked up)
chain: MSQPPPPPPPLPPPPPPPEAPQTPSSLASAAASGGLLKRRDRRILSGSCPDPKCQARLFFPASGSVSIECTECGQRHEQQQLLGVEEVTDPDVVLHNLLRNALLGVTGAPKKNTELVKVMGLSNYHCKLLSPILARYGMDKQTGRAKLLRDMNQGELFDCALLGDRAFLIEPEHVNTVGYGKDRSGSLLYLHDTLEDIKRANKSQECLIPVHVDGDGHCLVHAVSRALVGRELFWHALRENLKQHFQQHLARYQALFHDFIDAAEWEDIINECDPLFVPPEGVPLGLRNIHIFGLANVLHRPIILLDSLSGMRSSGDYSATFLPGLIPAEKCTGKDGHLNKPICIAWSSSGRNHYIPLVGIKGAALPKLPMNLLPKAWGVPQDLIKKYIKLEEDGGCVIGGDRSLQDKYLLRLVAAMEEVFMDKHGIHPSLVADVHQYFYRRTGVIGVQPEEVTAAAKKAVMDNRLHKCLLCGALSELHVPPEWLAPGGKLYNLAKSTHGQLRTDKNYSFPLNNLVCSYDSVKDVLVPDYGMSNLTACNWCHGTSVRKVRGDGSIVYLDGDRTNSRSTGGKCGCGFKHFWDGKEYDNLPEAFPITLEWGGRVVRETVYWFQYESDSSLNSNVYDVAMKLVTKHFPGEFGSEILVQKVVHTILHQTAKKNPDDYTPVNIDGAHAQRVGDVQGQESESQLPTKIILTGQKTKTLHKEELNMSKTERTIQQNITEQASVMQKRKTEKLKQEQKGQPRTVSPSTIRDGPSSAPATPTKAPYSPTTSKEKKIRITTNDGRQSMVTLKSSTTFFELQESIAREFNIPPYLQCIRYGFPPKELMPPQAGMEKEPVPLQHGDRITIEILKSKAEGGQSAAAHSAHTVKQEDIAVTGKLSSKELQEQAEKEMYSLCLLATLMGEDVWSYAKGLPHMFQQGGVFYSIMKKTMGMADGKHCTFPHLPGKTFVYNASEDRLELCVDAAGHFPIGPDVEDLVKEAVSQVRAEATTRSRESSPSHGLLKLGSGGVVKKKSEQLHNVTAFQGKGHSLGTASGNPHLDPRARETSVVRKHNTGTDFSNSSTKTEPSVFTASSSNSELIRIAPGVVTMRDGRQLDPDLVEAQRKKLQEMVSSIQASMDRHLRDQSTEQSPSDLPQRKTEVVSSSAKSGSLQTGLPESFPLTGGTENLNTETTDGCVADALGAAFATRSKAQRGNSVEELEEMDSQDAEMTNTTEPMDHS
modifications: BODIPY, non-site-selective labelling, DOL 0.23, as the labelled partner of the TR-FRET assays; unlabelled in cryo-EM, as competitor in the displacement assay and in the DUB assay
notes: AlphaFold model AF-Q96JH7-F1-v4 used for model building; One molecule for labelled and unlabelled protein; also called VCPIP1^WT; VCIP135; source: co-expressed with VCP for cryo-EM data set 1 (ion exchange omitted)
B2: VCPIP1^ΔVCPID (aa Δ589-666) (enzyme, UniProt Q96JH7 1-1222, looked up)
chain: MSQPPPPPPPLPPPPPPPEAPQTPSSLASAAASGGLLKRRDRRILSGSCPDPKCQARLFFPASGSVSIECTECGQRHEQQQLLGVEEVTDPDVVLHNLLRNALLGVTGAPKKNTELVKVMGLSNYHCKLLSPILARYGMDKQTGRAKLLRDMNQGELFDCALLGDRAFLIEPEHVNTVGYGKDRSGSLLYLHDTLEDIKRANKSQECLIPVHVDGDGHCLVHAVSRALVGRELFWHALRENLKQHFQQHLARYQALFHDFIDAAEWEDIINECDPLFVPPEGVPLGLRNIHIFGLANVLHRPIILLDSLSGMRSSGDYSATFLPGLIPAEKCTGKDGHLNKPICIAWSSSGRNHYIPLVGIKGAALPKLPMNLLPKAWGVPQDLIKKYIKLEEDGGCVIGGDRSLQDKYLLRLVAAMEEVFMDKHGIHPSLVADVHQYFYRRTGVIGVQPEEVTAAAKKAVMDNRLHKCLLCGALSELHVPPEWLAPGGKLYNLAKSTHGQLRTDKNYSFPLNNLVCSYDSVKDVLVPDYGMSNLTACNWCHGTSVRKVRGDGSIVYLDGDRTNSRSTGGKCGCGFKHFWDGKEYDNLNIDGAHAQRVGDVQGQESESQLPTKIILTGQKTKTLHKEELNMSKTERTIQQNITEQASVMQKRKTEKLKQEQKGQPRTVSPSTIRDGPSSAPATPTKAPYSPTTSKEKKIRITTNDGRQSMVTLKSSTTFFELQESIAREFNIPPYLQCIRYGFPPKELMPPQAGMEKEPVPLQHGDRITIEILKSKAEGGQSAAAHSAHTVKQEDIAVTGKLSSKELQEQAEKEMYSLCLLATLMGEDVWSYAKGLPHMFQQGGVFYSIMKKTMGMADGKHCTFPHLPGKTFVYNASEDRLELCVDAAGHFPIGPDVEDLVKEAVSQVRAEATTRSRESSPSHGLLKLGSGGVVKKKSEQLHNVTAFQGKGHSLGTASGNPHLDPRARETSVVRKHNTGTDFSNSSTKTEPSVFTASSSNSELIRIAPGVVTMRDGRQLDPDLVEAQRKKLQEMVSSIQASMDRHLRDQSTEQSPSDLPQRKTEVVSSSAKSGSLQTGLPESFPLTGGTENLNTETTDGCVADALGAAFATRSKAQRGNSVEELEEMDSQDAEMTNTTEPMDHS
modifications: BODIPY, non-site-selective labelling, DOL 0.62, in the TR-FRET binding assay
notes: VCPIP1 full length with the VCPID (aa 589-666) deleted; made from the Strep-VCPIP1 plasmid by PCR; also called VCPID domain truncation
B3: p47 (natural protein)
chain: MAAERQEALREFVAVTGAEEDRARFFLESAGWDLQIALASFYEDGGDEDIVTISQATPSSVSRGTAPSDNRVTSFRDLIHDQDEDEEEEEGQRFYAGGSERSGQQIVGPPRKKSPNELVDDLFKGAKEHGAVAVERVTKSPGETSKPRPFAGGGYRLGAAPEEESAYVAGEKRQHSSQDVHVVLKLWKSGFSLDNGELRSYQDPSNAQFLESIRRGEVPAELRRLAHGGQVNLDMEDHRDEDFVKPKGAFKAFTGEGQKLGSTAPQVLSTSSPAQQAENEAKASSSILIDESEPTTNIQIRLADGGRLVQKFNHSHRISDIRLFIVDARPAMAATSFILMTTFPNKELADESQTLKEANLLNAVIVQRLT
notes: p47 cloned into pNIC-Bio2 with an N-terminal His-6-TEV tag; printed residue numbers reach V366 (UBX domain); Used unlabelled in the displacement assay and in cryo-EM; also called adapter protein p47; source: E. coli LOBSTR, purified (Ni resin, ion exchange, SEC)

Columns and labels:
Details in all cases: both partners purified
[1] = biological target: T1, valosin-containing protein (VCP)/p97 (UniProt P55072 1-806, terbium chelate (CoraFluor), non-site-selective labelling, DOL 0.33, in the TR-FRET assays only); experiment: FRET or BRET; TR-FRET binding assay of BODIPY-VCPIP1 WT on Tb-VCP with 1 uM AMP; apparent KD
T1 construct: VCP/p97, full length; One molecule for the unlabelled protein (cryo-EM, DUB assay) and the Tb-labelled protein (TR-FRET); Hexamer seen by cryo-EM; also called Tb-VCP; terbium-chelate labeled VCP; source: co-expressed with VCPIP1 for cryo-EM data set 1 (ion exchange omitted)

[2] = biological target: T1, valosin-containing protein (VCP)/p97; experiment: FRET or BRET; TR-FRET binding assay of BODIPY-VCPIP1 WT on Tb-VCP, buffer control (no nucleotide added); apparent KD; another protein batch than a3
[3] = biological target: T1, valosin-containing protein (VCP)/p97; experiment: FRET or BRET; TR-FRET binding assay: Tb-VCP with a serial dilution of BODIPY-labelled VCPIP1 construct; 25 mM HEPES pH 7.4, 150 mM NaCl, 0.1% BSA, 0.05% Tween-20; 1 h at room temperature; apparent KD
[4] = biological target: T1, valosin-containing protein (VCP)/p97; experiment: FRET or BRET; TR-FRET binding assay of BODIPY-VCPIP1 WT on Tb-VCP with 1 uM ADP; apparent KD
[5] = biological target: T1, valosin-containing protein (VCP)/p97; experiment: FRET or BRET; TR-FRET displacement assay: 10 nM BODIPY-VCPIP1 WT pre-incubated with 10 nM Tb-VCP, serial dilution of unlabelled VCPIP1 WT or p47; TR-FRET buffer, room temperature
[6] = biological target: T1, valosin-containing protein (VCP)/p97; experiment: FRET or BRET; TR-FRET binding assay of BODIPY-VCPIP1 WT on Tb-VCP with 1 uM ATP; apparent KD
[7] = biological target: T1, valosin-containing protein (VCP)/p97; experiment: FRET or BRET; TR-FRET binding assay of BODIPY-VCPIP1 WT on Tb-VCP with 1 uM ATPγS; apparent KD

T1 sequence (P55072 whole entry): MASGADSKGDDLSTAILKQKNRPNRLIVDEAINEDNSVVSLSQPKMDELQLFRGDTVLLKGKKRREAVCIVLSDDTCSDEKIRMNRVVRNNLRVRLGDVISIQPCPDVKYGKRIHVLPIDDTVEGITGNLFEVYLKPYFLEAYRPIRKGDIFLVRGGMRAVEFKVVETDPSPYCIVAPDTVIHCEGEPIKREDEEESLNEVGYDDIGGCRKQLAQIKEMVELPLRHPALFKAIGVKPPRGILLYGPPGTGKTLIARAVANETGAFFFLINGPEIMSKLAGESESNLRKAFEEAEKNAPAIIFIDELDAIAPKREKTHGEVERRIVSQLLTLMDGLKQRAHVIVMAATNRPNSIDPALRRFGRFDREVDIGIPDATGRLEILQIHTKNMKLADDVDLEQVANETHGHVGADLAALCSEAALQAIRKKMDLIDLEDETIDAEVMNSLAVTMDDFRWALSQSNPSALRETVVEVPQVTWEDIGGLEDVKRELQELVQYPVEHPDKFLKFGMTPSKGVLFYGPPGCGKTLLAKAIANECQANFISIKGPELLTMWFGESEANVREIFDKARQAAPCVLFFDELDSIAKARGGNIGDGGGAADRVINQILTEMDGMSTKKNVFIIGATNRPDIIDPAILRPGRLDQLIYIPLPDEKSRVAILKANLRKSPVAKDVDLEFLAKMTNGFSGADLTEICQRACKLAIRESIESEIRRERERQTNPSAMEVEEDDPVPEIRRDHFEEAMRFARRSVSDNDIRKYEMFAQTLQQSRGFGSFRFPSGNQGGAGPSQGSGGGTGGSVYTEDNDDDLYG

Binder | Kd [1] [nM] | Kd [2] [nM] | Kd [3] [nM] | Kd [4] [nM] | IC50 [5] [nM] | Kd [6] [nM] | Kd [7] [nM]
B1 | 16.1 | 16.5 | 79.5 | 67.6 | 74.5 | 68.3 | 63.9
B2 |  |  | 67.9 |  |  |  | 
B3 |  |  |  |  | 20.4 |  | 
